B1: TRIM29 (parent)
chain: RKCPVHGKTMELFCQTDQTCICYL
B2: NETO1 (parent)
chain: KTSLLDQLTNTSGTVIGVTSCIVI

Variants of: B1
Test: protein stability index of a GFP-peptide fusion (GPS, HEK-293T) (PSI 1-6); higher = more stable
Conditions: c terminus: a fixed tail appended
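Note: lentivirally expressed fusions sorted by FACS into six bins by GFP to DsRed ratio, PSI derived from sequencing read proportions per bin multiplied by bin number.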

Protein stability index of substitutions, site by site:
L24: K 4.82; P 5.26; N 4.57; M 4.34; E 4.75; S 5.39; H 4.59; C 4.74; Q 5.07; I 4.21; V 4.34; R 4.89; G 5.15; T 5.36; F 4.64; W 4.47; Y 3.86; D 5.58; A 5.02
C22: K 2.04; N 1.67; Q 2.02; Y 1.45; R 1.99; T 2.16; S 2.46; P 2.27; I 2.81; V 2.9; L 3.09; M 2.37; W 1.23
Y23: T 4.17; N 4.91; F 1.65; V 2.66; W 1.59; L 2.58; R 3.95; M 3.38; S 4.29; G 4.98; A 4.28; H 4.24; I 2.73; P 5.16; D 5.55; K 4.52; Q 4.28; E 5.25; C 4.73

Variants of: B2
Test: as above
Conditions: c terminus: a fixed tail appended

Protein stability index of substitutions, site by site:
L5: K 2.78; H 2.21; I 2.8; Q 3.37; Y 2.3; A 3.63; R 3.13; S 3.07; P 2.45; C 2.32; W 3.45; E 2.98; G 2.97; F 2.32; N 3.16; M 3.86; D 2.98; V 2.59
K1: Q 2.81; R 1.61; P 3.02; N 2.53; S 3; M 3.4; I 2.82; Y 2.37; H 2.11; G 2.6; W 3.48; L 2.67; F 3.08; E 3.07
Q7: C 2.94; D 3.75; E 2.27; F 2.62; H 4.35; A 2.92; I 2.08; G 3.62
T2: H 2.98; M 2.76; P 3.5; Q 2.94; R 3.11; W 2.31; E 2.12; S 2.57; F 3.71; I 3.34; G 3.08; Y 3.38; K 2.64; N 2.4; A 3.1; V 2.68; D 3.94; C 1.93; L 2.58
D6: P 1.82; Y 3.38; I 3.8; M 2.53; G 2.31; A 3.62; N 2.37; W 3.03; F 2.58; S 2.52; Q 2.18; R 3.02; V 2.61; T 3.2; C 4.27; L 2.92; E 3.74; H 3.23; K 1.98
L4: P 2.67; W 3.2; T 3.56; R 2.34; Y 2.83; N 2.6; D 2.7; C 2.08; A 2.65; S 1.85; E 2.94; I 4.14; M 2.19; K 2.57; H 3.14; V 3.28; Q 3.64; F 2.99; G 4.07
S3: P 2.58; K 2.88; A 3.59; F 2.59; I 3.45; D 2.46; Y 3.56; M 3.37; W 2.56; Q 3.04; N 2.57; T 2.61; L 2.17; H 2.43; C 3.27; G 1.92; E 2.86; R 3.26; V 2.39

Source: the supplement of paper PMC10567573
